T1: human IL-25 expressed with a C-terminal myc-myc-hexahistidine tag (human)
T1 construct: also called human IL-25-MMH; hIL-25-MMH
T1 chain: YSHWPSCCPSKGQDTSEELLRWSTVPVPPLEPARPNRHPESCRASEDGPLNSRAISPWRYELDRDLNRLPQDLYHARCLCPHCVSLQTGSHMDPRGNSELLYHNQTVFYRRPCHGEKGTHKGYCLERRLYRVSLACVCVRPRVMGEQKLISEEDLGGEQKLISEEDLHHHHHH

T2: monkey IL-25 expressed with a C-terminal myc-myc-hexahistidine tag (M. fascicularis (cynomolgus monkey))
T2 construct: also called monkey IL-25-MMH; MfIL-25-MMH
T2 chain: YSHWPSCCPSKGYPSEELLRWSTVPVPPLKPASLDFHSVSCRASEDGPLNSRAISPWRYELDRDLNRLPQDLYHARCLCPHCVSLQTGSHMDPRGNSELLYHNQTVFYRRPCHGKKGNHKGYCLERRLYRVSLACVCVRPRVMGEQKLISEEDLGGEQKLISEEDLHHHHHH

T3: mouse IL-25 expressed with a C-terminal myc-myc-hexahistidine tag (mouse)
T3 construct: also called mouse IL-25-MMH; mIL-25-MMH
T3 chain: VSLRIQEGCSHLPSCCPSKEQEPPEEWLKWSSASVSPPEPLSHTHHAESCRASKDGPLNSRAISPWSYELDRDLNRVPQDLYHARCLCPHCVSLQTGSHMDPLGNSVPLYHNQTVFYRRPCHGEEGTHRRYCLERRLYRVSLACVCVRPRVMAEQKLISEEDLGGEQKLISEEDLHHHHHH

T4: rat IL-25 expressed with a C-terminal myc-myc-hexahistidine tag (rat)
T4 construct: also called rat IL-25-MMH
T4 chain: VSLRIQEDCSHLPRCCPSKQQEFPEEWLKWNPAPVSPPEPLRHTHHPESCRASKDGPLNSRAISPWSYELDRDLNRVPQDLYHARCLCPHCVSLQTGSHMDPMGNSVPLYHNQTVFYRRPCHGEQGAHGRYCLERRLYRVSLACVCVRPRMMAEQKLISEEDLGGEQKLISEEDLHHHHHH

T5: mouse IL-25 expressed with a C-terminal myc-myc-hexahistidine tag (mouse)
T5 construct: also called Mouse IL-25-MMH; mIL-25-MMH
T5 chain: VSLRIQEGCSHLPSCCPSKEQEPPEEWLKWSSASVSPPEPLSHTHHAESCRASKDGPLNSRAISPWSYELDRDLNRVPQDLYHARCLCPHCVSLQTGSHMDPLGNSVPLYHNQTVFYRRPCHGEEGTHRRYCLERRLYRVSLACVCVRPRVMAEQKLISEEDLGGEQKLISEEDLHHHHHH

T6: human IL-25 expressed with a C-terminal myc-myc-hexahistidine tag (human)
T6 chain: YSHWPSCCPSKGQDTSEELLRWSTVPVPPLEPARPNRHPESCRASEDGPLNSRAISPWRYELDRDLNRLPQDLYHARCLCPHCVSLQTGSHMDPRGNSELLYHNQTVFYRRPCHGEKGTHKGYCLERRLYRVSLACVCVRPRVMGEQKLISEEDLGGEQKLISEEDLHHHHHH

T7: monkey IL-25 expressed with a C-terminal myc-myc-hexahistidine tag (M. fascicularis (cynomolgus monkey))
T7 chain: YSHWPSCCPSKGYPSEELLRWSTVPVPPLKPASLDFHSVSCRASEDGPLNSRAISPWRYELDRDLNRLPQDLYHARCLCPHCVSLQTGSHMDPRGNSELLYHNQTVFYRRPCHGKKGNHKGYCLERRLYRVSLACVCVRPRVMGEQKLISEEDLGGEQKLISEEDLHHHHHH

T8: rat IL-25 expressed with a C-terminal myc-myc-hexahistidine tag (rat)
T8 construct: also called Rat IL-25-MMH
T8 chain: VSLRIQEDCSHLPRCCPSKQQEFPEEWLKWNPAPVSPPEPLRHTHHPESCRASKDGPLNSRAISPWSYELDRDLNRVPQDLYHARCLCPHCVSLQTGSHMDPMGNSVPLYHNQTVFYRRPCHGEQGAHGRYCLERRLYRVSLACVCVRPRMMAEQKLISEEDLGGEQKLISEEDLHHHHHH


How the values were obtained:
[1] = target: T1, human IL-25 expressed with a C-terminal …; test: SPR Biacore, captured mAb, 37°C
Procedure: (§1) Equilibrium dissociation constants (KD values) for IL-25 binding to purified anti-IL-25 antibodies were determined using a real-time surface plasmon resonance biosensor assay on a Biacore 4000 instrument (GE Healthcare). […] All the IL-25 reagents were expressed with a C-terminal myc-myc-hexahistidine tag (referred to herein as “IL-25-MMH”). […] Kinetic association (kₐ) and dissociation (kd) rate constants were determined by fitting the real-time sensorgrams to a 1:1 binding model using Scrubber 2.0c curve fitting software.

[2] = target: T2, monkey IL-25 expressed with a …; test: SPR Biacore, captured mAb, 25°C;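 as to 100 nM Human IL-25-MMH Bound (RU): biacore 4000 SPR with IL-25-MMH as analyte over purified anti-IL-25 antibodies, association and dissociation rates derived from fitting sensorgrams to a 1:1 binding model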;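 as to 100 nM Monkey IL-25-MMH Bound (RU): Real-time surface plasmon resonance on a Biacore 4000, with IL-25-MMH binding to purified anti-IL-25 antibodies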
Procedure: as §1

[3] = target: T1, human IL-25 expressed with a C-terminal …; test: SPR Biacore, captured mAb, 25°C;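 as to 100 nM Human IL-25-MMH Bound (RU): biacore 4000 SPR with IL-25-MMH as analyte over purified anti-IL-25 antibodies, association and dissociation rates derived from fitting sensorgrams to a 1:1 binding model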;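 as to 100 nM Monkey IL-25-MMH Bound (RU): Real-time surface plasmon resonance on a Biacore 4000, with IL-25-MMH binding to purified anti-IL-25 antibodies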
Procedure: as §1

[4] = target: T3, mouse IL-25 expressed with a C-terminal …; test: SPR Biacore, captured mAb, 25°C and 37°C
Procedure: as §1

[5] = target: T4, rat IL-25 expressed with a C-terminal …; test: SPR Biacore, captured mAb, 25°C and 37°C
Procedure: as §1

[6] = target: T5, mouse IL-25 expressed with a C-terminal …; test: SPR Biacore, antibody captured, 37C;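 as to 100 nM Monkey IL-25-MMH Bound (RU): biacore 4000 surface plasmon resonance biosensor measuring binding of IL-25-MMH to purified anti-IL-25 antibodies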;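 as to 100 nM Mouse IL-25-MMH Bound (RU): Real-time sensorgrams of IL-25-MMH binding to purified anti-IL-25 antibodies, rate constants obtained by fitting a 1:1 binding model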;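 as to Kd: biacore 4000 surface plasmon resonance biosensor measuring binding of IL-25-MMH to purified anti-IL-25 antibodies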
Procedure: as §1

[7] = target: T6, human IL-25 expressed with a C-terminal …; test: cell-based or functional assay
[8] = target: T7, monkey IL-25 expressed with a …; test: cell-based or functional assay
[9] = target: T8, rat IL-25 expressed with a C-terminal …; test: SPR Biacore, antibody captured, 37C;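 as to 100 nM Monkey IL-25-MMH Bound (RU): biacore 4000 surface plasmon resonance biosensor measuring binding of IL-25-MMH to purified anti-IL-25 antibodies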;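 as to 100 nM Mouse IL-25-MMH Bound (RU): Real-time sensorgrams of IL-25-MMH binding to purified anti-IL-25 antibodies, rate constants obtained by fitting a 1:1 binding model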
[10] = target: T6, human IL-25 expressed with a C-terminal …; test: BLI Octet, hIL-25-MMH captured on anti-Penta-His sensor, 25C
Procedure: Binding competition between anti-IL-25 monoclonal antibodies was determined using a real time, label-free bio-layer interferometry assay on an Octet QK384 biosensor (Pall ForteBio Corp.).
The biosensors were washed in HBST kinetics buffer in between every step of the experiment. The real-time binding response was monitored during the course of the experiment and the binding response at the end of every step was recorded.

[11] = target: T5, mouse IL-25 expressed with a C-terminal …; test: SPR Biacore, antibody captured, 25C;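 as to 100 nM Rat IL-25-MMH Bound (RU): purified anti-IL-25 antibodies were tested by real-time surface plasmon resonance on a Biacore 4000, with rate constants obtained from sensorgram fits to a 1:1 binding model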
[12] = target: T6, human IL-25 expressed with a C-terminal …; test: competition ELISA, 2 nM hIL-25-MMH binding to coated hIL-17RB-hFc; (*) below theoretical bottom of the assay
Procedure: (§2) Data analysis was performed using a sigmoidal dose-response model within Prism™ software (GraphPad). […] The absorbance values of the wells containing the highest concentration for each antibody were used to determine the percent maximum blockade.

[13] = target: T6, human IL-25 expressed with a C-terminal …; test: competition ELISA, 2 nM hIL-25-MMH binding to coated hIL-17RB-hFc
Procedure: as §2

[14] = target: T8, rat IL-25 expressed with a C-terminal …; test: SPR Biacore, antibody captured, 25C;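 as to 100 nM Rat IL-25-MMH Bound (RU): purified anti-IL-25 antibodies were tested by real-time surface plasmon resonance on a Biacore 4000, with rate constants obtained from sensorgram fits to a 1:1 binding model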
[15] = target: T6, human IL-25 expressed with a C-terminal …; test: cell-based or functional assay
[16] = target: T7, monkey IL-25 expressed with a …; test: SPR Biacore, antibody captured, 37C;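 as to 100 nM Monkey IL-25-MMH Bound (RU): biacore 4000 surface plasmon resonance biosensor measuring binding of IL-25-MMH to purified anti-IL-25 antibodies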;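 as to 100 nM Mouse IL-25-MMH Bound (RU): Real-time sensorgrams of IL-25-MMH binding to purified anti-IL-25 antibodies, rate constants obtained by fitting a 1:1 binding model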

Binder	100 nM Human IL-25-MMH Bound (RU) [1] [RU]	Kd [1] [nM]	koff [1] [s⁻¹]	kon [1] [M⁻¹ s⁻¹]	t½ [1] [h]	100 nM Monkey IL-25-MMH Bound (RU) [2] [RU]	Kd [2] [nM]	koff [2] [s⁻¹]	kon [2] [M⁻¹ s⁻¹]	t½ [2] [h]	100 nM Human IL-25-MMH Bound (RU) [3] [RU]	Kd [3] [nM]	koff [3] [s⁻¹]	kon [3] [M⁻¹ s⁻¹]	t½ [3] [h]	binding result [4]	binding result [5]	further results
H4H10901P (antibody, human IgG4, V domains shown) VH: QLQLQESGPGLVRPSETLSLTCSVSSGSIRSSNYYWGWIRQPPGKGLEWIGNIYYSGNTFYNPSLKGRVTISVDTSKNQFSLKLSSVTATDTAVYYCARQGYSDYELNWFDPWGQGTLVTVSS VL: DIVMTQSPDSLVLSLGERATFNCKSSQSVLDSSNNKNYLAWYQQKPGQPPKLLIYWASTRESGVPDRFSGSGSGTDFSLTISSLQAEDVALYYCQQFYNSPWTFGQGTKVEIK	65	0.0651	0.000208	3.19e+06	0.933	64	0.0116	3.06e-05	2.63e+06	6.28	62	0.0254	5.79e-05	2.28e+06	3.32	no binding (tested: 100 nM)	no binding (tested: 100 nM)	
H4H10903P (antibody, human IgG4, V domains shown) VH: QVQLQESGPGLVKPSETLSLTCTVSGGSINSYSWTWIRQPPGKGLEWIGNIYNSENTNYNPSLKSRVTISVDTSKSQVSLKLNSVTAADTAVYYCARTYNWNYEIGAMGVWGQGTTVTVSS VL: not shown	65	0.0508	7.75e-05	1.53e+06	2.48	57	≤ 0.00871	≤ 1e-05	1.15e+06	19.2	54	0.0192	1.73e-05	897000	11.2	no binding (tested: 100 nM)	no binding (tested: 100 nM)	
H4H10906P (antibody, human IgG4, V domains shown) VH: QVQLQESGPGLVKPSETLSLTCTVSGGSISSYYWSWIRQPPGKGLEWIGFIYYSGSTNYNPSLKSRVTISVDTSKNQFSLKLSSVTAADTAVYYCARHDSDYELYGMDVWGQGTTVTVSS VL: not shown	72	0.0529	0.000154	2.9e+06	1.25	61	0.0141	2.95e-05	2.09e+06	6.52	61	0.0264	4.32e-05	1.64e+06	4.47	no binding (tested: 100 nM)	no binding (tested: 100 nM)	
H4H10862P (antibody, human IgG4, V domains shown) VH: QVQLQESGPGLVKPSETLSLTCTVSGGSISSYFWSWIRQAPGKGLEWIGFIDYSGSTNYNPSLKSRVTISVDTSKNQFSLKLNSVTAADTAVYYCARQEIINFELNWFDPWGQGTLVTVSS VL: not shown	72	0.0879	0.00021	2.39e+06	0.917	58	0.0255	5.1e-05	2e+06	3.77	56	0.0344	6.49e-05	1.88e+06	2.97	no binding (tested: 100 nM)	no binding (tested: 100 nM)	
H4H10861P (antibody, human IgG4, V domains shown) VH: QVQLQESGPGLVKPSETLSLTCTVSGASISNYYWSWIRQPPGKGLEWIGYIFYSGNTNYNPSLKSRVTISVDTSKNQFSLKLSSVTAADTAVYYCARVRFSDYELNWFDPWGQGTLVTVSS VL: DIVMTQSPDSLAVFLGERATINCRSSQSVFLGSNNKNYLAWYQQKPGQPPKLLIYWASSRESGVPDRFSGSGSGTDFTLTINSLQAEDVAVYYCQQYFITPLTFGGGTKVEIK	63	0.0268	7.8e-05	2.91e+06	2.47	48	0.00454	1.48e-05	3.26e+06	13	47	0.0116	2.34e-05	2.01e+06	8.22	no binding (tested: 100 nM)	no binding (tested: 100 nM)	
H4H10864P (antibody, human IgG4, V domains shown, H4H prefix = human IgG4 Fc) VH: QVQLQESGPGLVKPSETLSLTCTVSGGSISNYFWSWIRQPPGKGLEWIGFNYNSGSTNYNPSLKSRVTISVDTSKNQFSLKLSSVTAADTAVYYCARGYNWNYEIAWFDPWGQGTLVTVSS VL: not shown																		100 nM Mouse IL-25-MMH Bound (RU) [6]: 1 RU; IC50, luciferase reporter cells, 5 pM hIL-25-MMH [7]: 3.6e-11 M; IC50, luciferase reporter cells, 12 pM MfIL-25-MMH [8]: 2.6e-11 M; 100 nM Rat IL-25-MMH Bound (RU) [9]: 1 RU; 50 ug/mL mAb-1 Binding (nm) [10]: 0.84 nm; 100 nM Mouse IL-25-MMH Bound (RU) [11]: -1 RU; IC50 [12]: 0.26 nM; % Maximum blocking of 200 nM antibody [13]: 88%; 100 nM Rat IL-25-MMH Bound (RU) [14]: -1 RU; IC50 values of antibodies for blocking IL-5 release from Donor #727058-059 [15]: 1.15 nM; IC50 values of antibodies for blocking IL-5 release from Donor #727060 [15]: 0.677 nM; 100 nM Monkey IL-25-MMH Bound (RU) [16]: 94 RU; Kd [16]: 0.0436 nM; koff [16]: 0.00019 s⁻¹; kon [16]: 4.35e+06 M⁻¹ s⁻¹; t½ [16]: 1.02 h

From patent publication US20160083466A1 (Regeneron, published 2016)
